Assay results: paper PMC8178691

Molecular target: human purified plasma‐derived fibronectin (human)
Test: ELISA

Substance: recombinant VWF p.D2509E (from UniProt P04275 23-2813) (natural protein)
- binding as percent of normal VWF: 68%
